Data as given in paper PMC9198812, “Residues located in the primase domain of the bacteriophage T7 primase-helicase are essential for loading the hexameric complex onto DNA”.

How the values were obtained:
[1] = biological target: gp4 WT (T7 primase-helicase) (bacteriophage T7, UniProt P03692 1-566); experiment: double-filter binding; 1 mM [beta,gamma-CH2] dTTP, 10 mM MgCl2; Filter binding: 40 mM Tris-HCl pH 7.5, 50 mM potassium glutamate, 10 mM MgCl2, 5 mM DTT, 1 mM [beta,gamma-CH2] dTTP, 30 min, 25 C; mass photometry: 40 mM Tris-HCl pH 7.5, 150 mM KCl, 10 mM MgCl2, 25 C, 8.7 nM gp4 hexamer, 10 nM ssDNA; conditions: protein: recombinant; tags: His (implied: pET28, TALON); chain copies: 6; label: 5'-32P; single strand
[2] = biological target: gp4-Y111A (bacteriophage T7, UniProt P03692 1-566, Y111A); experiment: as above; conditions: protein: recombinant; tags: His (implied: pET28, TALON); chain copies: 6; label: 5'-32P; single strand

## ATGACCATGATTTCGACGTTTTTTTTTTTGGGGATCCTCTAACCTGCGCA (ssDNA) [50-nt ssDNA, 5'-32P]
[1]
  Kd: 14 nM
[2]
  Kd: 93 nM
